The values below come from publication PMC10765591, “Structural analysis and molecular substrate recognition properties of Arabidopsis thaliana ornithine transcarbamylase, the molecular target of phaseolotoxin produced by Pseudomonas syringae” (Frontiers in Plant Science, 2023).

In the assay the target is Arabidopsis thaliana ornithine transcarbamylase (Arabidopsis thaliana) (UniProt O50039). Nature of the assay: crystal structure; AtOTC co-crystallised with 20 mM ornithine or carbamoyl phosphate; HEPES 0.1 M pH 6.0, 0.3 M Li2SO4, PEG 3350, about 20°C; three subunits around a non-crystallographic three-fold axis.

Arabidopsis thaliana ornithine transcarbamylase, sequence (O50039 53-375): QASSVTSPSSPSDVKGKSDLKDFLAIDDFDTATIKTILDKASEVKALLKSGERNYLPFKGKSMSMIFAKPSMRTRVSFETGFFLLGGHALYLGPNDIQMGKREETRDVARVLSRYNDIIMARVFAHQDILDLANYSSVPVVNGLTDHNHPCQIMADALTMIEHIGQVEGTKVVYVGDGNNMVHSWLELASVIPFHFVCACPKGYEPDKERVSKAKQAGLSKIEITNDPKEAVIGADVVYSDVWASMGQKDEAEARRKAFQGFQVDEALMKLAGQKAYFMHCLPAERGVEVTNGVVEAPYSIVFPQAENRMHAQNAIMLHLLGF

Take “Arabidopsis thaliana ornithine transcarbamylase (from UniProt O50039 53-375) (enzyme)”: the stoichiometry N (commonly the number of molecules, sites or subunits per partner or assembly) is 3.
